One assay addresses HLA-B*53:01. The experiment in a line: IEDB peptide-MHC binding, purified MHC/competitive/radioactivity; filed as Kd, often an IC50 or EC50 that approximates it; ≥ and ≤ were set here for values at or beyond the usual limits of such assays.
A further assay deals with HLA-B*44:02. Put plainly: IEDB peptide-MHC binding, purified MHC/direct/fluorescence; filed as Kd, often an IC50 or EC50 that approximates it; ≥ and ≤ were set here for values at or beyond the usual limits of such assays.
Another assay concerns the target HLA-A*69:01. Described as above. As to conditions: source organism: Mammarenavirus lassaense.
In another assay the target is HLA-A*31:01. The description is as above. As to conditions: source organism: Mammarenavirus lassaense.
Assay [1] has as its target HLA-B*18:01. Described as above.
A further assay addresses HLA-B*40:01. Described as above. As to conditions: source organism: Mammarenavirus lassaense.
Another assay has as its target HLA-B*48:01. The assay is described as above.
Another assay concerns the target HLA-A*03:01. The assay is described as above.
The next assay concerns the target HLA-A*11:01. The description is as above. As to conditions: source organism: Mammarenavirus lassaense.
The target of another assay is HLA-B*58:01. Described as above. As to conditions: source organism: Mammarenavirus lassaense.
In another assay the target is HLA-B*27:05. The assay is described as above. As to conditions: source organism: Mammarenavirus lassaense.
The target of assay [2] is HLA-B*08:01. The assay is described as above. As to conditions: source organism: Mammarenavirus lassaense.
Assay [3] concerns the target HLA-A*02:01. The description is as above.
In the next assay the target is HLA-A*01:01. The assay is described as above. As to conditions: source organism: Mammarenavirus lassaense.
In the next assay the target is HLA-A*30:01. The experiment in a line: IEDB peptide-MHC binding, purified MHC/competitive/radioactivity; filed as Kd, often an IC50 or EC50 that approximates it; ≥ and ≤ were set here for values at or beyond the usual limits of such assays. As to conditions: source organism: Vaccinia virus WR.
For the next assay, the target named is HLA-B*15:01. The assay is described as above.
In assay [4] the target is HLA-B*08:01. The assay is described as above.
The next assay has as its target HLA-A*32:01. The assay is described as above.
Another assay concerns the target HLA-B*15:03. The description is as above.
A further assay deals with HLA-A*02:03. The description is as above.
A further assay addresses HLA-A*68:02. The assay is described as above. As to conditions: source organism: Dengue virus 2 Jamaica/1409/1983.
Another assay addresses HLA-A*02:17. Described as above.
The target in assay [5] is HLA-A*02:01. The assay is described as above.
The target of assay [6] is HLA-B*57:01. The description is as above. As to conditions: source organism: Dengue virus 3 China/80-2/1980.
The target of the next assay is HLA-B*35:01. Described as above. As to conditions: source organism: Dengue virus 3 Singapore/8120/1995.
Another assay concerns the target HLA-B*44:03. Described as above. As to conditions: source organism: Murray valley encephalitis virus (strain MVE-1-51).
The target of assay [7] is HLA-B*18:01. The experiment in a line: IEDB peptide-MHC binding, purified MHC/competitive/fluorescence; filed as Kd, often an IC50 or EC50 that approximates it; ≥ and ≤ were set here for values at or beyond the usual limits of such assays. As to conditions: source organism: Lechiguanas virus.
Another assay addresses HLA-B*39:01. The description is as above. As to conditions: source organism: Lechiguanas virus.
The next assay deals with HLA-A*26:01. Described as above. As to conditions: source organism: Lechiguanas virus.
The next assay addresses HLA-B*46:01. The description is as above. As to conditions: source organism: Lechiguanas virus.
Assay [8] addresses HLA-B*57:01. The description is as above. As to conditions: source organism: Lechiguanas virus.
The target of another assay is HLA-B*27:03. Described as above. As to conditions: source organism: Lechiguanas virus.
A further assay has as its target HLA-B*51:01. The description is as above. As to conditions: source organism: Lechiguanas virus.
Setting [9] is: source organism: Mammarenavirus lassaense.
[10] abbreviates: source organism: Vaccinia virus WR.
The mark [11] stands for this setting: source organism: Dengue virus 2 Jamaica/1409/1983.
Where [12] appears, read: source organism: Vaccinia virus Copenhagen.
[13] abbreviates: source organism: West Nile virus.
Where [14] appears, read: source organism: Dengue virus 3 China/80-2/1980.
Setting [15] is: source organism: Dengue virus 1 Brazil/97-11/1997.
[16] abbreviates: source organism: dengue virus type 1.
Setting [17] is: source organism: Dengue virus 1 Singapore/S275/1990.
Setting [18] is: source organism: Dengue virus 4 Dominica/814669/1981.

The Kd is the concentration at which binding is half-saturated. With HMEGVFHTMW, in the assay with HLA-B*53:01 (source organism: Dengue virus 4 Philippines/H241/1956), the Kd was 34.6 nM.

For FVRSSPANF, the Kd in the assay with HLA-B*44:02 (setting [9]), with HLA-A*69:01, in the assay with HLA-A*31:01, with HLA-B*18:01 [1] (setting [9]), with HLA-B*40:01 and in the assay with HLA-B*48:01 (setting [9]) was no less than 20000 nM each time. Moreover, the dissociation constant (Kd) was no less than 20000 nM with HLA-A*03:01 (setting [9]); no less than 20000 nM in the assay with HLA-A*11:01; no less than 20000 nM in the assay with HLA-B*58:01; no less than 20000 nM with HLA-B*27:05; 2100 nM with HLA-B*08:01 [2]; no less than 20000 nM in the assay with HLA-A*02:01 [3] (setting [9]). The same sequence returned a Kd in the assay with HLA-A*01:01 of no less than 20000 nM.

For the sequence AINNRICVM, the Kd with HLA-A*30:01 worked out at 135 nM; with HLA-B*15:01 (setting [10]) it was 50.6 nM; with HLA-B*08:01 [4] (setting [10]) it was 423 nM; with HLA-A*32:01 (setting [10]) it was 1240 nM; with HLA-B*15:03 (setting [10]), 65.1 nM.

As to TLYAVATTFV, the dissociation constant Kd with HLA-A*02:03 (setting [11]) was 2.65 nM; in the assay with HLA-A*68:02, 11.5 nM; with HLA-A*02:17 (setting [11]), 490 nM; with HLA-A*02:01 [5] (setting [11]), 12.6 nM.

As to IASTLIVTI, the Kd in the assay with HLA-A*30:01 was found to be 10.1 nM; with HLA-B*15:01 (setting [10]), 156 nM; with HLA-B*08:01 [4] (setting [10]) it was 8400 nM; with HLA-A*32:01 (setting [10]), 73.5 nM; with HLA-B*15:03 (setting [10]), 110 nM.

With IHIPQSQLF, the Kd in the assay with HLA-B*15:03 (setting [10]) was determined as 5.49 nM.

Turning to FLVDGLSSI, the dissociation constant Kd with HLA-B*15:03 (setting [10]) is 3160 nM.

Regarding LALKEFKEF, in the assay with HLA-B*53:01 (setting [11]), the dissociation constant Kd is 1840 nM.

Consider KSHAAYIDY, for which the dissociation constant (Kd) with HLA-A*30:01 was 12 nM; with HLA-B*15:01 (setting [10]), 1.84 nM; with HLA-B*08:01 [4] (setting [10]), no less than 77700 nM; with HLA-A*32:01 (setting [10]), 875 nM; with HLA-B*15:03 (setting [10]), 1.67 nM.

With VSFNRVVIF, the results for the Kd in the assay with HLA-A*32:01 (setting [12]) and with HLA-B*15:03 (setting [12]) were 559 nM and 1.05 nM, respectively.

On to RRWCFDGPR, for which the dissociation constant (Kd) with HLA-B*48:01 (setting [13]) was no less than 20000 nM.

In turn, AEREPFQYF gave an equilibrium dissociation constant (Kd) with HLA-B*18:01 [1] (source organism: Mycobacterium ulcerans) of 208 nM.

As to RASSGDSSF, the equilibrium dissociation constant (Kd) with HLA-B*15:03 (setting [10]) was determined as 20.6 nM.

Turning to FQYVSYSNF, the Kd in the assay with HLA-A*30:01 was determined as 12500 nM; with HLA-B*15:03 (setting [10]), 0.261 nM.

With KTSLCLMMML, the Kd in the assay with HLA-B*57:01 [6] was determined as 18.8 nM.

For MMATIGIALL, the Kd in the assay with HLA-A*02:03 (setting [11]) is 0.94 nM; with HLA-B*15:01 (setting [11]), 15 nM; with HLA-A*02:17 (setting [11]), 305 nM; with HLA-A*02:01 [5] (setting [11]), 9.45 nM.

Regarding YAMCLNTFVL, the equilibrium dissociation constant (Kd) worked out at 43.4 nM with HLA-B*35:01, 110 nM with HLA-A*02:17 (setting [14]) and 11.4 nM with HLA-A*02:01 [5] (setting [14]).

Turning to YGVLFSGVSW, the dissociation constant (Kd) in the assay with HLA-B*53:01 (setting [15]) was determined as 261 nM.

ALLELFNAF: the Kd worked out at 357 nM in the assay with HLA-A*30:01; 2.48 nM with HLA-B*15:01 (setting [10]); 2690 nM with HLA-B*08:01 [4] (setting [10]); 166 nM with HLA-A*32:01 (setting [10]); 0.241 nM with HLA-B*15:03 (setting [10]).

For SKVFFGPIY, in the assay with HLA-B*15:03 (setting [10]), the Kd came to 1.02 nM.

Turning to SLNTLTISF, the Kd in the assay with HLA-B*15:03 (setting [10]) was 475 nM.

Take KQPEGVILF: in the assay with HLA-B*15:03 (setting [10]), the Kd came to 3.65 nM.

Consider VEGLGLQKL, for which the Kd in the assay with HLA-B*18:01 [1] (setting [13]) turned out to be 1280 nM.

For the sequence REDQWCGSL, the results for the dissociation constant (Kd) in the assay with HLA-B*44:02 (setting [16]) and with HLA-B*18:01 [1] (setting [16]) were no less than 20000 nM and 11600 nM, respectively.

Consider LEFEALGFL, for which the dissociation constant Kd with HLA-B*18:01 [1] (source organism: Alkhumra hemorrhagic fever virus) stood at 2.8 nM; with HLA-B*44:03 it was 4970 nM.

Take ILLMRTTWAL: the figures for the equilibrium dissociation constant (Kd) with HLA-A*02:17 (setting [17]), in the assay with HLA-B*08:01 [4] (setting [15]) and with HLA-A*02:01 [5] (setting [17]) were 21.7 nM, 12.2 nM and 1.7 nM, respectively.

As to LSIFFYSSF, the Kd in the assay with HLA-A*30:01 was determined as 131 nM; in the assay with HLA-B*15:01 (setting [10]), 17.3 nM; in the assay with HLA-A*32:01 (setting [10]), 129 nM; with HLA-B*15:03 (setting [10]) it was 0.218 nM.

On to IPQWQPSKGW, for which the Kd with HLA-B*53:01 (source organism: Dengue virus 3 Martinique/1243/1999) turned out to be 73.1 nM.

Turning to AMPKTIYEL, the dissociation constant Kd with HLA-A*03:01 (source organism: Lechiguanas virus) is no less than 20000 nM; in the assay with HLA-A*02:01 [3] (source organism: Orthohantavirus andesense), 37.3 nM; in the assay with HLA-B*18:01 [7], no less than 20000 nM; with HLA-B*39:01, no less than 20000 nM; with HLA-A*26:01, no less than 20000 nM; with HLA-B*46:01 it was no less than 20000 nM. For the same sequence, the Kd with HLA-B*57:01 [8], in the assay with HLA-B*27:03 and in the assay with HLA-B*51:01 was no less than 20000 nM each time.

RQFYNANVL: the Kd in the assay with HLA-A*32:01 (setting [10]) was found to be 37.2 nM; with HLA-B*15:03 (setting [10]), 0.236 nM.

Turning to KLSMGLITI, the Kd with HLA-A*02:03 (setting [18]) came out at 23.9 nM; in the assay with HLA-A*02:17 (setting [18]) it was 1810 nM; with HLA-A*32:01 (setting [18]), 19.8 nM; with HLA-A*02:01 [5] (setting [18]) it was 20.5 nM.

Turning to SQVKCCHYF, the Kd came out at 80.6 nM with HLA-A*30:01; 0.921 nM in the assay with HLA-B*15:01 (setting [10]); 7240 nM with HLA-B*08:01 [4] (setting [10]); 11400 nM in the assay with HLA-A*32:01 (setting [10]); 0.92 nM with HLA-B*15:03 (setting [10]).

In the case of MCIKYTACM, the equilibrium dissociation constant (Kd) is no less than 26600 nM in the assay with HLA-A*30:01; 954 nM with HLA-B*15:01 (setting [10]); 7.75 nM with HLA-B*08:01 [4] (setting [10]); 16200 nM in the assay with HLA-A*32:01 (setting [10]); 51.9 nM with HLA-B*15:03 (setting [10]).

Source of the values: the Immune Epitope Database (IEDB).
